{
  "source": "patent US20050002950",
  "molecular_target": "recombinant human C5a (UniProt P01031)",
  "sequence (P01031 678-751)": "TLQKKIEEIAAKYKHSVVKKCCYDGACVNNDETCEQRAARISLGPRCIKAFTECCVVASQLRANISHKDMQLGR",
  "data": [
    {"substance": "ScpB, the C5a peptidase of GBS, on whole cells of strain COH1", "values": [
      {"measurement": "C5a protease activity (C5a-stimulated PMN adherence to gelatin-coated plastic after preincubating C5a with GBS)", "value": "Preincubation of C5a with COH1 or TOH121 abolished C5a activity"}
    ]}
  ]
}
